The RNAGym collection of RNA variant scans (doi:10.1021/acssynbio.7b00057)

B1: Pistol ribozyme (parent)
chain: GGGUCGUUGUUCCAUAAUCGCGUGGAUAUGGCACGCAAGUUUCUACCGGGCACCGUAAAUGUCCGACUGGAGCCGUUCGGGCGGCUAUAAACAGACCUCAGGCCCGAAGCGUGGCGGCACCUGCCGCCGGUGGUAAAAAAGAUCGGAAGAGCACACGUCU

Variants of: B1
Experiment: aptazyme ON/OFF ratio, guanine; higher = stronger switching; co-transcriptional cleavage with and without guanine

Variant	aptazyme ON/OFF ratio
U7C U8G G9U U10A C12G C13A	1.13
U7C U8G G9U U10A C12G C13G	1.18
U7C U8G G9U U10A C12G C13U	1.21
U7C U8G G9C U10G U11C C12A	1.24
U7C U8G G9C U10G U11C C12U	1.07
U7C U8G G9C U10G U11C C12G	1.25
U7C U8G G9C U10G U11G C12U C13A	1.06
U7C U8G G9C U10G U11G C12U C13U	1.11
U7C U8G G9C U10G U11G C12U C13G	1.09
U7C U8G G9U U10G U11C	1.07
U7C U8G G9U U10G U11G	1.18
U7C U8G G9U U10G U11A	1.13
U7C U8G G9C U11A C12G C13A	1.1
U7C U8G G9C U11A C12G C13G	1.13
U7C U8G G9C U11A C12G C13U	1.11
U7C U8G G9U U10C U11C C13G	1.05
U7C U8G G9U U10C U11C C13U	1.03
U7C U8G G9U U10C U11C C13A	1.03
U7C U8G G9U U10C C12A	1.68
U7C U8G G9U U10C C12U	1.4
U7C U8G G9U U10C C12G	1.29
U7C U8G G9U U10C U11A C12U C13U	1.34
U7C U8G G9U U10C U11A C12U C13G	1.27
U7C U8G G9U U10C U11A C12U C13A	1.24

Variant	aptazyme ON/OFF ratio
U7C U8G G9U	3.71
U7C U8G G9U U10C C12A C13U	1.37
U7C U8G G9U U10C C12A C13A	1.41
U7C U8G G9U U10C C12A C13G	1.19
U7C U8G G9U U10G U11A C13G	1.08
U7C U8G G9U U10G U11A C13U	1.12
U7C U8G G9U U10G U11A C13A	1.1
U7C U8G G9U U10G U11A C12U C13G	1.17
U7C U8G G9U U10G U11A C12U C13U	1.26
U7C U8G G9U U10G U11A C12U C13A	1.24
U7C U8G G9U U10G U11G C12G C13G	1.24
U7C U8G G9U U10G U11G C12G C13U	1.25
U7C U8G G9U U10G U11G C12G C13A	1.15
U7C U8G G9U U10C C13U	2.24
U7C U8G G9U U10C C13A	1.15
U7C U8G G9U U10C C13G	1.13
U7C U8G G9C U10G	1.47
U7C U8G G9U U10C U11G C12U C13A	1.24
U7C U8G G9U U10C U11G C12U C13U	1.41
U7C U8G G9U U10C U11G C12U C13G	1.22
U7C U8G G9C U11C C12G	1.67
U7C U8G G9C U11C C12A	2.71
U7C U8G G9C U11C C12U	1.33
U7C U8G G9C U10C U11G C12U C13G	1.09

Variant	aptazyme ON/OFF ratio
U7C U8G G9C U10C U11G C12U C13U	1.07
U7C U8G G9C U10C U11G C12U C13A	1.07
U7C U8G G9U U10G U11G C13G	1.06
U7C U8G G9U U10G U11G C13A	1.23
U7C U8G G9U U10G U11G C13U	1.21
U7C U8G G9U U10C U11G C13A	1.19
U7C U8G G9U U10C U11G C13U	1.19
U7C U8G G9U U10C U11G C13G	1.03
U7C U8G G9U U10A C13A	1.14
U7C U8G G9U U10A C13U	1.1
U7C U8G G9U U10A C13G	1.08
U7C U8G G9U U10C U11A C12G C13G	1.21
U7C U8G G9U U10C U11A C12G C13U	1.2
U7C U8G G9U U10C U11A C12G C13A	1.14
U7C U8G G9U U10A U11A C12U C13A	1.22
U7C U8G G9U U10A U11A C12U C13U	1.25
U7C U8G G9U U10A U11A C12U C13G	1.08
U7C U8G G9C U10G U11G C13G	1.1
U7C U8G G9C U10G U11G C13U	1.11
U7C U8G G9C U10G U11G C13A	1.13
U7C U8G G9C U10G C12U C13G	1.14
U7C U8G G9C U10G C12U C13U	1.35
U7C U8G G9C U10G C12U C13A	1.24
U7C U8G G9U U10C U11G	1.23

Variant	aptazyme ON/OFF ratio
U7C U8G G9U U10C U11C	1.06
U7C U8G G9U U10C U11A	1.5
U7C U8G G9C U10G U11A C12U C13U	1.27
U7C U8G G9C U10G U11A C12U C13A	1.38
U7C U8G G9C U10G U11A C12U C13G	1.27
U7C U8G G9U U10C U11C C12U C13U	1.09
U7C U8G G9U U10C U11C C12U C13G	1.05
U7C U8G G9U U10C U11C C12U C13A	1.05
U7C U8G G9C U10G U11C C12G C13G	1.22
U7C U8G G9C U10G U11C C12G C13A	1.31
U7C U8G G9C U10G U11C C12G C13U	1.24
U7C U8G G9U U10G U11G C12A	1.22
U7C U8G G9U U10G U11G C12U	1.28
U7C U8G G9U U10G U11G C12G	1.22
U7C U8G G9U U10C	2.72
U7C U8G G9U U10G	1.28
U7C U8G G9U U10A	1.12
U7C U8G G9U U10C U11C C12G	1.07
U7C U8G G9U U10C U11C C12U	1.1
U7C U8G G9U U10C U11C C12A	1.07
U7C U8G G9U U10A U11G C12U C13G	1.14
U7C U8G G9U U10A U11G C12U C13U	1.14
U7C U8G G9U U10A U11G C12U C13A	1.11
U7C U8G G9U U10C C12U C13G	1.32

Variant	aptazyme ON/OFF ratio
U7C U8G G9U U10C C12U C13U	1.38
U7C U8G G9U U10C C12U C13A	1.38
U7C U8G G9U C12G	1.78
U7C U8G G9U C12A	1.64
U7C U8G G9U C12U	1.97
U7C U8G G9C U11A C12G	1.16
U7C U8G G9C U11A C12A	1.22
U7C U8G G9C U11A C12U	1.28
U7C U8G G9U U10G U11C C13A	1.17
U7C U8G G9U U10G U11C C13U	1.16
U7C U8G G9U U10G U11C C13G	1.14
U7C U8G G9C U10G C12G	1.16
U7C U8G G9C U10G C12A	1.21
U7C U8G G9C U10G C12U	1.4
U7C U8G G9U U10A U11G C13U	1.28
U7C U8G G9U U10A U11G C13G	1.04
U7C U8G G9U U10A U11G C13A	1.13
U7C U8G G9C U11G C13G	1.03
U7C U8G G9C U11G C13U	1.15
U7C U8G G9C U11G C13A	1.18
U7C U8G G9C U10G U11G C12A C13G	1.11
U7C U8G G9C U10G U11G C12A C13U	1.14
U7C U8G G9C U10G U11G C12A C13A	1.15
U7C U8G G9U U10G C12G C13U	1.07

Variant	aptazyme ON/OFF ratio
U7C U8G G9U U10G C12G C13G	1.08
U7C U8G G9U U10G C12G C13A	1.07
U7C U8G G9U U10G C12U C13U	1.32
U7C U8G G9U U10G C12U C13A	1.17
U7C U8G G9U U10G C12U C13G	1.1
U7C U8G G9U U10A C12U	1.15
U7C U8G G9U U10A C12A	1.33
U7C U8G G9U U10A C12G	1.18
U7C U8G G9C U10G U11A C12G C13A	1.24
U7C U8G G9C U10G U11A C12G C13G	1.21
U7C U8G G9C U10G U11A C12G C13U	1.24
U7C U8G G9C U10G C13G	1.2
U7C U8G G9C U10G C13U	1.47
U7C U8G G9C U10G C13A	1.25
U7C U8G G9U U10C U11A C12A C13A	1.26
U7C U8G G9U U10C U11A C12A C13G	1.15
U7C U8G G9U U10C U11A C12A C13U	1.24
U7C U8G G9C U10G U11A C13U	1.16
U7C U8G G9C U10G U11A C13A	1.3
U7C U8G G9C U10G U11A C13G	1.19
U7C U8G G9U U10G C12G	1.08
U7C U8G G9U U10G C12U	1.12
U7C U8G G9U U10G C12A	1.15
U7C U8G G9U U10C U11G C12A C13U	1.22

Variant	aptazyme ON/OFF ratio
U7C U8G G9U U10C U11G C12A C13G	1.13
U7C U8G G9U U10C U11G C12A C13A	1.1
U7C U8G G9U U10A U11A C12G C13A	1.18
U7C U8G G9U U10A U11A C12G C13G	1.28
U7C U8G G9U U10A U11A C12G C13U	1.2
U7C U8G G9C U11G C12G C13G	1.1
U7C U8G G9C U11G C12G C13A	1.13
U7C U8G G9C U11G C12G C13U	1.09
U7C U8G G9U U10C U11G C12G C13A	1.15
U7C U8G G9U U10C U11G C12G C13U	1.08
U7C U8G G9U U10C U11G C12G C13G	1.15
U7C U8G G9U U10A U11C C12A C13G	1.16
U7C U8G G9U U10A U11C C12A C13U	1.13
U7C U8G G9U U10A U11C C12A C13A	1.16
U7C U8G G9U U10C C12G C13G	1.34
U7C U8G G9U U10C C12G C13A	1.28
U7C U8G G9U U10C C12G C13U	1.25
U7C U8G G9U U10A U11G C12G C13A	1.05
U7C U8G G9U U10A U11G C12G C13G	1.18
U7C U8G G9U U10A U11G C12G C13U	1.19
U7C U8G G9U U10A C12U C13A	1.2
U7C U8G G9U U10A C12U C13G	1.2
U7C U8G G9U U10A C12U C13U	1.35
